The source of these data is US20200347151A1 (CRAGE MEDICAL, published 2020).

The target of one test is T1, mouse FAPα_His (mouse, UniProt P97321 26-761).
T1 construct: Fusion protein expressed in 293F cells and purified on a nickel column; also called mFAP
As to the kind of experiment: Biacore, scFv; 8E3, murine FAP.

The target in test [1] is T2, human FAPα_His (human, UniProt Q12884 26-760).
T2 construct: Fusion protein expressed in 293F cells and purified on a nickel column; also called huFAP; recombinant huFAPα
T2 sequence (Q12884 other isoform, or with tags, fused parts or gaps limits assumed): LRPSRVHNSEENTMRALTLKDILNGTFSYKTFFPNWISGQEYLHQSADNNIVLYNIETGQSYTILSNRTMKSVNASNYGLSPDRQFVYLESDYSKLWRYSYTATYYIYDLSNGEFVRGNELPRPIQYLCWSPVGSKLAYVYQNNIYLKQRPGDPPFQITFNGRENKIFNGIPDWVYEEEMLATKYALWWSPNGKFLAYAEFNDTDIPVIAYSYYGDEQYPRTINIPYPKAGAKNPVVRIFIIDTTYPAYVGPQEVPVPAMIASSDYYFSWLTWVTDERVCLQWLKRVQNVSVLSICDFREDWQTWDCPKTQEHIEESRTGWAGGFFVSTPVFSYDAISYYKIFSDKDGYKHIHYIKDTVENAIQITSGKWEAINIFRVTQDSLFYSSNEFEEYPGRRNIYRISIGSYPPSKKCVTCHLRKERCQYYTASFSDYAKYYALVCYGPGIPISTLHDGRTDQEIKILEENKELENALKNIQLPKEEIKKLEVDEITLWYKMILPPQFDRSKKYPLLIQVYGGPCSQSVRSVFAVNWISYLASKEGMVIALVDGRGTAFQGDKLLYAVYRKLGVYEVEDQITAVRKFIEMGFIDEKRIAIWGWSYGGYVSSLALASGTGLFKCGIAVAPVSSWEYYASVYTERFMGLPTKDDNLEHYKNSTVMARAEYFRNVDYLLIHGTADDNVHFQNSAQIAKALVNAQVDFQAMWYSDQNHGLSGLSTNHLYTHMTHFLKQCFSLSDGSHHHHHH
As to the kind of experiment: Biacore, scFv; 8E3, human FAPα. Background: SPR reads the build-up and loss of mass on a sensor chip optically.

In test [2] the target is T2, human FAPα_His. As to the kind of experiment: Biacore, scFv; reference is parent antibody 10A4.

T1 sequence (P97321 other isoform, or with tags, fused parts or gaps limits assumed): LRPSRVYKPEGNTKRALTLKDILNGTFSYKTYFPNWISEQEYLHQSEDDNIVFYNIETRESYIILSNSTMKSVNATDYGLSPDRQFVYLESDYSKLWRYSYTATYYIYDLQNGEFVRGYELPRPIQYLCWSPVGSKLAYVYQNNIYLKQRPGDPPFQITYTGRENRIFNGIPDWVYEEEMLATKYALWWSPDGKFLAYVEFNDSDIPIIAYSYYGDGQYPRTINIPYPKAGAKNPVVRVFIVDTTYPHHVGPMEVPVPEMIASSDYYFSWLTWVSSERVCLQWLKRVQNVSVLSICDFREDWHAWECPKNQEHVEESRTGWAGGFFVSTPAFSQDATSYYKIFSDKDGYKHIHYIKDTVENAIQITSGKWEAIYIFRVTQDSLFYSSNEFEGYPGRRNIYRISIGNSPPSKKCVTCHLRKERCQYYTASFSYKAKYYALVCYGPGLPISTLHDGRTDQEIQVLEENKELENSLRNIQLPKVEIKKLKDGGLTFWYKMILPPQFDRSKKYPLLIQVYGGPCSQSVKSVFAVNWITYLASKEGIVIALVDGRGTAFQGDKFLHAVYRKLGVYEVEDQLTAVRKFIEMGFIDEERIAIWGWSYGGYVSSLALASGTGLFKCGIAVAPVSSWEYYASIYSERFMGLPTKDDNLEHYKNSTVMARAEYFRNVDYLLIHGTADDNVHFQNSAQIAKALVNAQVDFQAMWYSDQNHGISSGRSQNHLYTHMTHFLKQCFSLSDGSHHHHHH

B1: antibody 8E3 (scFv), affinity-matured from 10A4 (scFv)
scFv: QVQLVQSGAEVKKPGSSVKVSCKASGGTFSSYAISWVRQAPGQGLEWMGGIIPIFGTANYAQKFQGRVTITADKSTSTAYMELSSLRSEDTAVYYCARDAADRDYWGQGTTVTVSSGGGGSGGGGSGGGGSDIVMTQSPLSLPVTPGEPASISCRSSQSLLHPNGFNHLYWYLQKPGQSPQLLIYVGGNRASGVPDRFSGSGSGTDFTLKISRVEAEDVGVYYCQQRNNKNRTFGQGTKVEIKR
notes: also called hu8E3
For the molecule B1, the Kd (usually the concentration at which binding is half-saturated) with mouse FAPα_His was 267 nM; with human FAPα_His [1], 81.6 nM. Also, the “fold affinity against 10A4” value with human FAPα_His [2] is 2.4 times.
